Measurements from the supplement of paper PMC7877785.
± gives the uncertainty stated by the source.

Experiment: self-splicing fitness, log relative to wild type (ln ratio); higher = more splicing; Tetrahymena group I intron in knt gene, E. coli kanamycin selection, DiMSum; sequences stand for … in CUCUCU…GGAGGGAAAAGUUAUCAGGCAUGCACCUGGUAGCUAGUCUUUAAACCAAUAGAUUGCAUCGGUUUAAAAGGCAAGACCGUCAAAUUGCGGGAAAGGGGUCAACAGCCGUUCAGUACCAAGUCUCAGGGGAAACUUUGAGAUGGCCUUGCAAAGGGUAUGGUAAUAAGCUGACGGACAUGGUCCUAACCACGCAGCCAAGUCCUAAGUCAACAGAUCUUCUGUUGAUAUGGAUGCAGUUCACAGACUAAAUGUCGGUCGGGGAAGAUGUAUUCUUCUCAUAAGAUAUAGUCGGACCUCUCCUUAAUGGGAGCUAGCGGAUGAAGUGAUGCAACACUGGAGCCGCUGGGAACUAAUUUGUAUGCGAAAGUAUAUUGAUUAGUUUUGGAGUACUCGUGGUCG
Outline: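 Colonies from six replicate transformations of E. coli BL21(DE3) were pooled and amplicon-sequenced on an Illumina HiSeq 2500. The library placed an intron with all eight P1ex-region nucleotides randomised inside the knt kanamycin-resistance gene on pET-22b(+), and cells grew overnight at 37°C or 30°C on LB agar with or without 25 μg/mL kanamycin (plus 100 μg/mL carbenicillin, 50 μM IPTG, 0.2% rhamnose). Fitness is the DiMSum error-weighted combination of wild-type-normalised replicate fold changes, kanamycin versus none.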

| Sequence | self-splicing fitness (ln) (30 °C) | self-splicing fitness (ln) (37 °C) |
| --- | --- | --- |
| UGCUAGCAAUAUUACGCUAA | -1.85 ± 0.13 | -1.55 ± 0.16 |
| UGCUAGCAAUAUUACGGACC | 0.158 ± 0.22 | -1.06 ± 0.22 |
| UGCUAGCAAUAUUACGGCCA | -0.186 ± 0.11 | -0.178 ± 0.15 |
| UGCUAGCAAUAUUACGGGAU | -3.68 ± 0.19 | -1.76 ± 0.14 |
| UGCUAGCAAUAUUACGGGCU | -2.57 ± 0.13 | -1.89 ± 0.14 |
| UGCUAGCAAUAUUACGGUGG | -1.94 ± 0.066 | -1.33 ± 0.086 |
| UGCUAGCAAUAUUACGUAAA | -1.9 ± 0.094 | -1.6 ± 0.13 |
| UGCUAGCAAUAUUACGUAAG | -2.3 ± 0.19 | -1.35 ± 0.18 |
| UGCUAGCAAUAUUACGUCAC | -3.62 ± 0.19 | -2.74 ± 0.22 |
| UGCUAGCAAUAUUACGUCCA | -0.211 ± 0.06 | -0.404 ± 0.09 |
| UGCUAGCAAUAUUACGUCCC | -3.34 ± 0.18 | -0.521 ± 0.12 |
| UGCUAGCAAUAUUACGUUAU | -2.22 ± 0.16 | -2.33 ± 0.23 |
| UGCUAGCAAUAUUACGUUUG | -1.48 ± 0.074 | -0.163 ± 0.092 |
| UGGAAGCAAUAUUACGAGAA | -2.05 ± 0.43 | -1.73 ± 0.3 |
| UGGAAGCAAUAUUACGAGCG | 0.103 ± 0.11 | 0.127 ± 0.15 |
| UGGAAGCAAUAUUACGAUAG | -2.51 ± 0.2 | -0.419 ± 0.17 |
| UGGAAGCAAUAUUACGAUUC | -3.18 ± 0.3 |  |
| UGGAAGCAAUAUUACGCAAC | -3.31 ± 0.32 | -2.05 ± 0.27 |
| UGGAAGCAAUAUUACGCUGU | -2.58 ± 0.41 | -2.3 ± 0.49 |
| UGGAAGCAAUAUUACGCUUA | -1.39 ± 0.13 | 0.125 ± 0.15 |
| UGGAAGCAAUAUUACGGAUG | -0.948 ± 0.098 | -0.832 ± 0.12 |
| UGGAAGCAAUAUUACGGCGC | -1.23 ± 0.22 | -0.241 ± 0.22 |
| UGGAAGCAAUAUUACGGGGA | -2.19 ± 0.15 | -2.16 ± 0.16 |
| UGGAAGCAAUAUUACGUACU | -0.516 ± 0.094 | -0.023 ± 0.098 |

| Sequence | self-splicing fitness (ln) (30 °C) | self-splicing fitness (ln) (37 °C) |
| --- | --- | --- |
| UGGAAGCAAUAUUACGUCCU | -0.91 ± 0.2 | -0.584 ± 0.21 |
| UGGAAGCAAUAUUACGUGGC | -3.41 ± 0.25 | -2.71 ± 0.33 |
| UGGAAGCAAUAUUACGUUGA | -2.36 ± 0.17 | -2.01 ± 0.2 |
| UGGCAGCAAUAUUACGAACA | -0.346 ± 0.11 | 0.139 ± 0.13 |
| UGGCAGCAAUAUUACGACAU | -1.746 ± 0.014 | -0.812 ± 0.033 |
| UGGCAGCAAUAUUACGACCG | -0.969 ± 0.27 | -0.245 ± 0.42 |
| UGGCAGCAAUAUUACGACGA | -0.192 ± 0.12 | -0.159 ± 0.14 |
| UGGCAGCAAUAUUACGAGCA | -0.315 ± 0.098 | -0.218 ± 0.12 |
| UGGCAGCAAUAUUACGAGUG | -1.19 ± 0.11 | 0.196 ± 0.12 |
| UGGCAGCAAUAUUACGAUCG | 0.335 ± 0.067 | 1.02 ± 0.1 |
| UGGCAGCAAUAUUACGCACG | -1.22 ± 0.18 | 0.284 ± 0.19 |
| UGGCAGCAAUAUUACGCCUG | -1.24 ± 0.097 | -0.681 ± 0.13 |
| UGGCAGCAAUAUUACGCGGU | -2.54 ± 0.16 | -2.62 ± 0.31 |
| UGGCAGCAAUAUUACGCUGA | -2.79 ± 0.21 | -1.17 ± 0.12 |
| UGGCAGCAAUAUUACGCUUA | -0.68 ± 0.088 | 0.67 ± 0.1 |
| UGGCAGCAAUAUUACGCUUU | -1.24 ± 0.076 | -0.763 ± 0.1 |
| UGGCAGCAAUAUUACGGAGA | -2.9 ± 0.42 | -1.46 ± 0.41 |
| UGGCAGCAAUAUUACGGCAC | -2.27 ± 0.25 | -1.17 ± 0.16 |
| UGGCAGCAAUAUUACGGCAU | -1.18 ± 0.083 | -0.388 ± 0.092 |
| UGGCAGCAAUAUUACGGUAC | -2.66 ± 0.2 | -2.01 ± 0.31 |
| UGGCAGCAAUAUUACGGUCA | -2.12 ± 0.18 | -1.58 ± 0.15 |
| UGGCAGCAAUAUUACGGUCG | -0.881 ± 0.083 | 0.133 ± 0.13 |
| UGGCAGCAAUAUUACGGUUA | -0.000429 ± 0.076 | 0.0782 ± 0.092 |
